Common to all, as to assay: cell-based or functional assay
The target in test [1] is human complement protein C3 (human) (UniProt P01024).
The target in test [2] is proteinase-activated receptor 2 (PAR-2) (UniProt P55085).
Test [3] has as its target complement protein C3 of cynomolgus monkey plasma (cynomolgus monkey).

Positions count from the first letter of the chain named. Names may count otherwise.

Sequence of proteinase-activated receptor 2 (PAR-2) (P55085 37-397 limits assumed): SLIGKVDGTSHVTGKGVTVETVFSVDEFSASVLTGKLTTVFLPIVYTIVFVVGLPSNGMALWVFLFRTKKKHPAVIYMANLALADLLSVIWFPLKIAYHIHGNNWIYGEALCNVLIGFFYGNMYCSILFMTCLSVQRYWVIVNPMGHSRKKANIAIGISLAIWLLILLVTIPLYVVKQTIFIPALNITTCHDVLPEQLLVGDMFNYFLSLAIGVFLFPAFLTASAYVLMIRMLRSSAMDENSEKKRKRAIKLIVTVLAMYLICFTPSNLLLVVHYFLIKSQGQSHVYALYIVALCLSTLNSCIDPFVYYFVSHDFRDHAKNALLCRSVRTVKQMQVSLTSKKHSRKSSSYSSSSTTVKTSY
Sequence of human complement protein C3 (human) (P01024 23-667, chain 1 of 2): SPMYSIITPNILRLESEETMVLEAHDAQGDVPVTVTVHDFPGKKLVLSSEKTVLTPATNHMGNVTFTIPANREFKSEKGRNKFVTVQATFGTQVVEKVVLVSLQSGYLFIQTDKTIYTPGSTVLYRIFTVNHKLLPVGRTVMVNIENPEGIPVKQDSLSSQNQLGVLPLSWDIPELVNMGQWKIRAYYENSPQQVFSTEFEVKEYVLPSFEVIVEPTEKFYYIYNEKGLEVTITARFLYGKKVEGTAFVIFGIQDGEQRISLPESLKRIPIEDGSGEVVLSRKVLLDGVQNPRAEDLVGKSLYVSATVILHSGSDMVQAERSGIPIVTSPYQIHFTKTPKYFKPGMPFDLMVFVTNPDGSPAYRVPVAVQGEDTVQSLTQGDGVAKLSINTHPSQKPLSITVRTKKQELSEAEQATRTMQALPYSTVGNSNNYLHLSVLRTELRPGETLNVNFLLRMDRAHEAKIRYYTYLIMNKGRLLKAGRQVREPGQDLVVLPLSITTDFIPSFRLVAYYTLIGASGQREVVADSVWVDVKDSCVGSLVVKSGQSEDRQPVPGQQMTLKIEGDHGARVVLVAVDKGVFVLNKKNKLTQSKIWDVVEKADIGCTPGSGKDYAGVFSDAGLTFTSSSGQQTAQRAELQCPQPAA
Sequence of human complement protein C3 (human) (P01024 672-1663, chain 2 of 2): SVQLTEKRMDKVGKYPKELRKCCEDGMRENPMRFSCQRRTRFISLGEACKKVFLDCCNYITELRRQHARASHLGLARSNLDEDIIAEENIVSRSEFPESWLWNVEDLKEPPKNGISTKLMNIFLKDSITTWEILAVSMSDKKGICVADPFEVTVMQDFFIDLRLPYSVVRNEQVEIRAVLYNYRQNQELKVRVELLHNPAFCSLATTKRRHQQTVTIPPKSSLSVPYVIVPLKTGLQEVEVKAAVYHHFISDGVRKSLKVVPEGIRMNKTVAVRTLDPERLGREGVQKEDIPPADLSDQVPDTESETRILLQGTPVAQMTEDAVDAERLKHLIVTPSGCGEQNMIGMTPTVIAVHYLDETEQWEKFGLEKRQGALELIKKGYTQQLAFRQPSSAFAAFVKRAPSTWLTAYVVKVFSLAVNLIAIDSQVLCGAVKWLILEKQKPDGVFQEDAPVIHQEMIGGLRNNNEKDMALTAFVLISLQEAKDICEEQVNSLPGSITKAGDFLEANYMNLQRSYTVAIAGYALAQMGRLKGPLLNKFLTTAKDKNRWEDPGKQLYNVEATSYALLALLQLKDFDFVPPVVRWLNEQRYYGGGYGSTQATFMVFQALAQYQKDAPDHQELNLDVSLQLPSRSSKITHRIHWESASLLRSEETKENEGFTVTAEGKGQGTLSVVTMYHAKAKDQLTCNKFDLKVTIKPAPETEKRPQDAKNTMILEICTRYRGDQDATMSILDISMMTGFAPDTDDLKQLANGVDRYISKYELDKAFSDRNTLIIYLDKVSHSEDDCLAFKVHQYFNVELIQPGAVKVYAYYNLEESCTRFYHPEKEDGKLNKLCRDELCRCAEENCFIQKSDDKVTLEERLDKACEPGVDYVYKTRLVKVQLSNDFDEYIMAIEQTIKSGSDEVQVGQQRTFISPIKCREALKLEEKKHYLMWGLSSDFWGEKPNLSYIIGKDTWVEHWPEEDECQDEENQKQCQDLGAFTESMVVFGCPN

B1: Modified MTSP-1 protease domain Q38H/I41S/D60bT/F60eS/Y60gW/D96K/F97G/ins97aV/T98P/F99L/C122S/G151H/Q175L/Q192D (enzyme)
chain: VVGGTDADEGEWPWQVSLHALGHGHSCGASLISPNWLVSAAHCYIDTRGSRWSDPTQWTAFLGLHDQSQRSAPGVQERRLKRIISHPFFNKGVPLDYDIALLELEKPAEYSSMVRPISLPDASHVFPAGKAIWVTGWGHTQYGGTHALILQKGEIRVINQTTCENLLPQLITPRMMCVGFLSGGVDSCDGDSGGPLSSVEADGRIFQAGVVSWGDGCAQRNKPGVYTRLPLFRDWIKENTGV
In test [1], B1 came in with an inhibition of classical pathway hemolytic assay (CH50) in human plasma at the highest dose (2000 nM) of 94%. In test [2], the PAR-2 cell based assay ED50 and SKGR/SL kcat/Km, against wild-type MTSP-1 protease domain with C122S is greater than 30 fold.

B2: Q38H/I41A/D60bV/F60eR/Y60gW/F97T/ins97aE/T98G/F99L/C122S/G151N/Q175L/Q192D (enzyme)
chain: B1 chain with S26A, T47V, S50R, K91D, G92T, V93E, P94G, H146N
Consider B2, for which the C3 destruction ED50 (mg/kg), in vivo, intravenous injection, cynomolgus monkey in test [3] was 0.2 mg/kg. In test [2], the PAR-2 Cell Based Assay ED50 was found to be 0.69 µM.

B3: Q38H/I41A/D60bV/F60eR/Y60gW/D96I/F97Y/ins97aN/T98G/F99L/C122S/G151N/Q175L/Q192D (enzyme)
chain: B1 chain with S26A, T47V, S50R, K91I, G92Y, V93N, P94G, H146N
On to B3, for which, in test [3], the C3 destruction ED50 (mg/kg), in vivo, intravenous injection, cynomolgus monkey is 0.06 mg/kg. Further, in test [2], the PAR-2 Cell Based Assay ED50 worked out at 0.45 µM.

B4: Q38H/I41S/D60bT/F60eS/Y60gW/D96K/F97G/ins97aV/T98P/F99L/C122S/G151H/Q175L/Q192D (enzyme)
chain: B1 chain
B4 registered a C3 destruction ED50 (mg/kg), in vivo, intravenous injection, cynomolgus monkey in test [3] of 0.07 mg/kg. Besides, in test [1], the % Inhibition of CH50, human citrated plasma, 3.2 nM test article was -5%; the % Inhibition of CH50, human citrated plasma, 16 nM test article was 1%; the % Inhibition of CH50, human citrated plasma, 80 nM test article was 40%; the % Inhibition of CH50, human citrated plasma, 400 nM test article was determined as 84%. In test [1], the % Inhibition of CH50, human citrated plasma, 2000 nM test article was 92% and the EC50 (nM), cleavage of purified hC3 in vitro was 6.86 nM.

B5: Q38H/I41A/D60bT/F60eK/Y60gW/F97T/ins97aE/T98G/F99L/C122S/G151N/Q175L/Q192D (enzyme)
chain: B1 chain with S26A, S50K, K91D, G92T, V93E, P94G, H146N
In test [3], B5 displayed a C3 destruction ED50 (mg/kg), in vivo, intravenous injection, cynomolgus monkey of 0.2 mg/kg. This molecule registered a PAR-2 Cell Based Assay ED50 in test [2] of 1.9 µM.

B6: Q38H/I41S/D60bT/F60eS/Y60gW/F97D/ins97aV/T98P/F99L/C122S/G151H/Q175L/Q192E (enzyme)
chain: B1 chain with K91D, G92D, D189E
Molecule B6 had a C3 destruction ED50 (mg/kg), in vivo, intravenous injection, cynomolgus monkey in test [3] of 0.1 mg/kg. This molecule also yielded a PAR-2 Cell Based Assay ED50 in test [2] of 1.8 µM.

B7: Q38H/I41A/D60bV/F60eR/Y60gW/D96I/F97N/T98G/F99L/C122S/G151N/Q175L/Q192D (enzyme)
chain: VVGGTDADEGEWPWQVSLHALGHGHACGASLISPNWLVSAAHCYIDVRGRRWSDPTQWTAFLGLHDQSQRSAPGVQERRLKRIISHPFFNINGLDYDIALLELEKPAEYSSMVRPISLPDASHVFPAGKAIWVTGWGHTQYGGTNALILQKGEIRVINQTTCENLLPQLITPRMMCVGFLSGGVDSCDGDSGGPLSSVEADGRIFQAGVVSWGDGCAQRNKPGVYTRLPLFRDWIKENTGV
For the molecule B7, the EC50 (nM), cleavage of purified hC3 in vitro in test [1] was 2.87 nM. In test [2], this molecule gave a PAR-2 Cell Based Assay ED50 of 0.15 µM.

(Values after patent US20240018502A1.)
